Assay results as given in patent US20190048055A1.

Molecular target: CD38 molecules expressed on Daudi human B-cell lymphoma cells (human) (UniProt P28907)
Assay: cell-based or functional assay

anti-CD38 Ab (daratumumab) (antibody)
ADCC of human PBMCs against Daudi cells, dose response of anti-CD38 Ab (0.1 nM to 50 nM); lowest antibody concentration with increased killing: 0.1 nM
